In patent publication US12365732 (23ANDME, dated 2025):

B1: 10G1 (clone 10G1.3G8), purified hybridoma antibody (antibody, V domains shown)
VH: QIQLVQSGPELKKPGETVKISCKASGYPFTTYGMSWVKQAPGKGLKWMGWINTDSGVPTYADDFKGRFAFSLETSANTAYLQINSLKNEDAATYFCARNIYYGWGNFDYWGQGTILTVSS
VL: DILMTQSPTTLSVTPGETVSLSCRASQDIYRNLHWYQQKSQGTPRLLIKHASDSISGIPSRFTGSGSGTDFTLSINSVKPEDEGIYYCLQGYSMPYTFGGGTKLEIK
notes: murine hybridoma IgG
B2: mAb1.v7 Fab (Fab, V domains shown)
VH: EVQLVQSGAEVKKPGASVKVSCKASGFTFTNNWMHWVRQAPGQGLEWIGMIHPNSGITNINEKFKNRVTMTTDTSTSTAYMELRSLRSEDTAVYYCRSDGTYEGYFDYWGQGTLVTVSS
VL: DIQLTQSPSSLSASVGDRVTITCKASQNVGTAIVWYQQKPGKAPKVLIYSASTRYTGVPSRFSGSGSGTDFTLTISSLQPEDFATYYCQQYSSSPLTFGQGTKVEIK

Tests used:
[1] = target: T1, hu-CD226 on Expi293 cells (human, UniProt Q15762 19-336); assay: FACS, CD226-transfected Expi293 cells
T1 sequence: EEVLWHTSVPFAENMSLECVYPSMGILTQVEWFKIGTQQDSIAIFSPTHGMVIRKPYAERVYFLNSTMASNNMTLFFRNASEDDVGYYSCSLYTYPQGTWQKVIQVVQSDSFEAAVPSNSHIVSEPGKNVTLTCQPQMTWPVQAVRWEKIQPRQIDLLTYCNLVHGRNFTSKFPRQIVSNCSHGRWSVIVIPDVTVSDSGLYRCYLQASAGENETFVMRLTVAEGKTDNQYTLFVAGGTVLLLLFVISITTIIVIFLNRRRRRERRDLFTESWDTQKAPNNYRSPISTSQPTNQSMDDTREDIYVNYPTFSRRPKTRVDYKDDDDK
Procedure: In order to assess the generated antibodies for secondary binding to CD226, sequences encoding human CD226 ("hu-CD226") (SEQ ID NO: 482) and cyno CD226 ("cy-CD226") (SEQ ID NO: 483) (see Table 26 and Sequence Listing) were each cloned into pcDNA3.1 expression vector and Expi293 cells were separately transfected with plasmid containing either the hu-CD226 or cy-CD226 coding sequence. Starting concentrations of 1 μM and corresponding 3X serial dilutions of each antibody, NGS8, 10G1, and MABT398 (CD226 positive control, EMD Millipore, Burlington, MA, USA), were prepared for staining. Secondary antibodies employed included goat anti-mouse F(ab)2-PE (Invitrogen, Carlsbad, CA, USA) and goat anti-human F(ab)2-PE (Jackson ImmunoResearch, West Grove, PA, USA).
Samples, each containing one million transfected cells, were stained with primary antibody for 1 hr and secondary antibody for 30 min at 4° C. with agitation. Stained cells were washed in FACS buffer (1% BSA in PBS), fixed in 4% freshly prepared paraformaldehyde, and analyzed by flow cytometry. Ten thousand events were collected for each sample and curves, showing the fold change in CD226 binding, were separately plotted for hu-CD226 (FIG. 12A) and cy-CD226 (FIG. 12B) expressing cells.

[2] = target: T2, hu-CD96 (soluble, isoform 2 extracellular domain) (human, UniProt P40200 22-516, biotinylated in Octet and blocking ELISA); assay: CD155 blocking ELISA
T2 construct: the assays name only hu-CD96; also called hCD96; biotinylated hu-CD96
T2 sequence: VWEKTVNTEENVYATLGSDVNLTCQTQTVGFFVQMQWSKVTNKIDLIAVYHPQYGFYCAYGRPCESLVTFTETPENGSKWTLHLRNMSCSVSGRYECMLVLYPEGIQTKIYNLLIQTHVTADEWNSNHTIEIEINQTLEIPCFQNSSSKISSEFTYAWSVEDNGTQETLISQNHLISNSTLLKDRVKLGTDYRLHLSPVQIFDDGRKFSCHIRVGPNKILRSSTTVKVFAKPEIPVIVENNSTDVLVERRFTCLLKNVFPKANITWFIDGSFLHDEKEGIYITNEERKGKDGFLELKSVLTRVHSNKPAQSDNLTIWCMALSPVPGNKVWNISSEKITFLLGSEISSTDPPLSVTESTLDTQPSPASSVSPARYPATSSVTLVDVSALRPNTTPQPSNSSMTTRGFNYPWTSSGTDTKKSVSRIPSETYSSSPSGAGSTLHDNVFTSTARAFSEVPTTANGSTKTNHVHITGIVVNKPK

[3] = target: T2, hu-CD96 (soluble, isoform 2 …); assay: BLI (Octet), biotin-CD96 on SA, Fab analyte

Binder	EC50 [1] [nM]	apparent IC50 (pooled screen) [2] [nM]	apparent Kd (pooled screen) [3] [nM]
B1	232		
B2		0.74	76
